# Source: PMC9482650, “Quantitative fragmentomics allow affinity mapping of interactomes” (Nature Communications, 2022)
# T1: GRIP1_2, Q9Y3R0
# T1 sequence (Q9Y3R0 145-248, limits assumed, looked up): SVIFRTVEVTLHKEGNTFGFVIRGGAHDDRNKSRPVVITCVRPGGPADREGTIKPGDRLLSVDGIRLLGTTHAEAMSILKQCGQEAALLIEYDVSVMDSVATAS
# T2: DFNB31_3, Q9P202
# T2 sequence (Q9P202 811-907, limits assumed, looked up): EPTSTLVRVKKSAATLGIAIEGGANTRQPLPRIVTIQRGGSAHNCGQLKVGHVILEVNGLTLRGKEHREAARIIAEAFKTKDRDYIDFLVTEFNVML
# T3: APBA2_1, Q99767
# T3 sequence (Q99767 563-664, limits assumed, looked up): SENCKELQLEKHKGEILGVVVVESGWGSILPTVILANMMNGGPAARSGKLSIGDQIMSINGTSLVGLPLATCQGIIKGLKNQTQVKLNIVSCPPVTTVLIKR
# T4: PTPN13_1, Q12923
# T4 sequence (Q12923 1088-1188, limits assumed, looked up): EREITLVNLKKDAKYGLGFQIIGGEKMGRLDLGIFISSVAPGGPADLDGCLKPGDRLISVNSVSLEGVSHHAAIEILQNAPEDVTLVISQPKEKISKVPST
# T5: RHPN1, Q8TCX5
# T5 sequence (Q8TCX5 508-602, limits assumed, looked up): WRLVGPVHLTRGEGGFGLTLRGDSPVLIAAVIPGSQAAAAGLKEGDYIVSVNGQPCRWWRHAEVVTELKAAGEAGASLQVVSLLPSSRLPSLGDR
# T6: PDZD2_2, O15018
# T6 sequence (O15018 329-429, limits assumed, looked up): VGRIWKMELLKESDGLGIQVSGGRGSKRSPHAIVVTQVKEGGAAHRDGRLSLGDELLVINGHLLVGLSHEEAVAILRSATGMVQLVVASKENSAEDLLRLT
# T7: RAPGEF6, Q8TEU7
# T7 sequence (Q8TEU7 525-625, limits assumed, looked up): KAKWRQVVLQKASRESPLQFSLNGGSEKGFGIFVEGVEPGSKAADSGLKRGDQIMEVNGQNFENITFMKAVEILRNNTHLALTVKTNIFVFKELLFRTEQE
# T8: MPDZ_5, O75970
# T8 sequence (O75970 695-796, limits assumed, looked up): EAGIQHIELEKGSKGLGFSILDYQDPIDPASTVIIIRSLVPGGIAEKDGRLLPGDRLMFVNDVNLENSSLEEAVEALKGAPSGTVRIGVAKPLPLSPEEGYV
# T9: LNX2_3, Q8N448
# T9 sequence (Q8N448 463-564, limits assumed, looked up): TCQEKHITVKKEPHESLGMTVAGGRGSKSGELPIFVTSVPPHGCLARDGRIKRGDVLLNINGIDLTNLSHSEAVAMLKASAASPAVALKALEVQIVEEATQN
# T10: FRMPD1, Q5SYB0
# T10 sequence (Q5SYB0 52-145, limits assumed, looked up): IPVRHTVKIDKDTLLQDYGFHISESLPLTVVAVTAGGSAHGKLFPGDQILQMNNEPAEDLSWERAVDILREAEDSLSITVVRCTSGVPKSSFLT
# T11: MPDZ_12, O75970
# T11 sequence (O75970 1857-1958, limits assumed, looked up): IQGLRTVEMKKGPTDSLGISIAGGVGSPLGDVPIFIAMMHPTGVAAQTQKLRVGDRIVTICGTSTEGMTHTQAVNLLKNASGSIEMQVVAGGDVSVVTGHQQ
# T12: DLG3_3, Q92796
# T12 sequence (Q92796 374-475, limits assumed, looked up): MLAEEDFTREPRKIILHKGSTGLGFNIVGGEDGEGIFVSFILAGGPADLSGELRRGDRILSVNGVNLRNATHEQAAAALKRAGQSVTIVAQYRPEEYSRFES
# B1: HCN2, Q9UL51 (peptide)
# chain: SARSRLSSNL
# B2: PDGFRB, P09619 (peptide)
# chain: PRAEAEDSFL
# Target: HTRA2, O43464
# Assay: holdup assay
# Set-up: key: below the threshold = too weak to quantify, mostly under pKd 3.1 to 4
# Conditions: plain residues with an end cap or a label only (N-terminal biotin on a linker: ado-ado)
# HTRA2, O43464, sequence (O43464 355-458): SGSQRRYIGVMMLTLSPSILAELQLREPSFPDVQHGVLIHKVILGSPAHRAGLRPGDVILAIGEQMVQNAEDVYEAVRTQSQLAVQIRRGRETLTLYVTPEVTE
row,pKd,Binder
1,below the threshold,B1
2,below the threshold,B2

# Target: FRMPD2_3, Q68DX3
# Assay: holdup assay
# Set-up: key: below the threshold = too weak to quantify, mostly under pKd 3.1 to 4
# Conditions: plain residues with an end cap or a label only (N-terminal biotin on a linker: ado-ado)
# FRMPD2_3, Q68DX3, sequence (Q68DX3 1073-1166): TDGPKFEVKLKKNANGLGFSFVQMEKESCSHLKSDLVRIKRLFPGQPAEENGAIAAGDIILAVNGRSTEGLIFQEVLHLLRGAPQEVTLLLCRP
row,pKd,Binder
1,below the threshold,B1
2,3.51,B2

# Target: GRIP2_7, Q9C0E4
# Assay: holdup assay
# Set-up: key: below the threshold = too weak to quantify, mostly under pKd 3.1 to 4
# Conditions: plain residues with an end cap or a label only (N-terminal biotin on a linker: ado-ado)
# GRIP2_7, Q9C0E4, sequence (Q9C0E4 934-1023): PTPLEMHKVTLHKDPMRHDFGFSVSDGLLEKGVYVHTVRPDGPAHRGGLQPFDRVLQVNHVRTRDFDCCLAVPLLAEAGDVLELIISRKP
row,pKd,Binder
1,below the threshold,B1
2,below the threshold,B2

# Target: T1, GRIP1_2, Q9Y3R0
# Assay: holdup assay
# Set-up: key: below the threshold = too weak to quantify, mostly under pKd 3.1 to 4
# Conditions: plain residues with an end cap or a label only (N-terminal biotin on a linker: ado-ado)
row,pKd,Binder
1,below the threshold,B1
2,below the threshold,B2

# Target: SNX27, Q96L92
# Assay: holdup assay
# Set-up: key: below the threshold = too weak to quantify, mostly under pKd 3.1 to 4
# Conditions: plain residues with an end cap or a label only (N-terminal biotin on a linker: ado-ado)
row,pKd,Binder
1,4.3,B1
2,4.71,B2

# Target: T2, DFNB31_3, Q9P202
# Assay: holdup assay
# Set-up: key: below the threshold = too weak to quantify, mostly under pKd 3.1 to 4
# Conditions: plain residues with an end cap or a label only (N-terminal biotin on a linker: ado-ado)
row,pKd,Binder
1,below the threshold,B1
2,below the threshold,B2

# Target: T3, APBA2_1, Q99767
# Assay: holdup assay
# Set-up: key: below the threshold = too weak to quantify, mostly under pKd 3.1 to 4
# Conditions: plain residues with an end cap or a label only (N-terminal biotin on a linker: ado-ado)
row,pKd,Binder
1,below the threshold,B1
2,3.66,B2

# Target: T4, PTPN13_1, Q12923
# Assay: holdup assay
# Set-up: key: below the threshold = too weak to quantify, mostly under pKd 3.1 to 4
# Conditions: plain residues with an end cap or a label only (N-terminal biotin on a linker: ado-ado)
row,pKd,Binder
1,below the threshold,B1
2,below the threshold,B2

# Target: LNX1_2, Q8TBB1
# Assay: holdup assay
# Set-up: key: below the threshold = too weak to quantify, mostly under pKd 3.1 to 4
# Conditions: plain residues with an end cap or a label only (N-terminal biotin on a linker: ado-ado)
# LNX1_2, Q8TBB1, sequence (Q8TBB1 371-470): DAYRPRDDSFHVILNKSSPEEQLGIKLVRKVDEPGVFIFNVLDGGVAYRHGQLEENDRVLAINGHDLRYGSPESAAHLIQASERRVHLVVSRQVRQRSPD
row,pKd,Binder
1,below the threshold,B1
2,below the threshold,B2

# Target: T5, RHPN1, Q8TCX5
# Assay: holdup assay
# Set-up: key: below the threshold = too weak to quantify, mostly under pKd 3.1 to 4
# Conditions: plain residues with an end cap or a label only (N-terminal biotin on a linker: ado-ado)
row,pKd,Binder
1,3.92,B1
2,4.23,B2

# Target: NOS1, P29475
# Assay: holdup assay
# Set-up: key: below the threshold = too weak to quantify, mostly under pKd 3.1 to 4
# Conditions: plain residues with an end cap or a label only (N-terminal biotin on a linker: ado-ado)
# NOS1, P29475, sequence (P29475 9-101): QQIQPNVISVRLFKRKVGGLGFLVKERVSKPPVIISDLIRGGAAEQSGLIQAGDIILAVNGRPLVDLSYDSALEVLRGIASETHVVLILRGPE
row,pKd,Binder
1,below the threshold,B1
2,3.57,B2

# Target: T6, PDZD2_2, O15018
# Assay: holdup assay
# Set-up: key: below the threshold = too weak to quantify, mostly under pKd 3.1 to 4
# Conditions: plain residues with an end cap or a label only (N-terminal biotin on a linker: ado-ado)
row,pKd,Binder
1,3.74,B1
2,4.43,B2

# Target: T7, RAPGEF6, Q8TEU7
# Assay: holdup assay
# Set-up: key: below the threshold = too weak to quantify, mostly under pKd 3.1 to 4
# Conditions: plain residues with an end cap or a label only (N-terminal biotin on a linker: ado-ado)
row,pKd,Binder
1,below the threshold,B1
2,below the threshold,B2

# Target: NHERF4_1, Q86UT5-2
# Assay: holdup assay
# Set-up: key: below the threshold = too weak to quantify, mostly under pKd 3.1 to 4
# Conditions: plain residues with an end cap or a label only (N-terminal biotin on a linker: ado-ado)
# NHERF4_1, Q86UT5-2, sequence (Q86UT5 other isoform, or with tags, fused parts or gaps): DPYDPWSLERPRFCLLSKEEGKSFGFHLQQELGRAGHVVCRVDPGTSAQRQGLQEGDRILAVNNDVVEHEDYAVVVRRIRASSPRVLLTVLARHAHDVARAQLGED
row,pKd,Binder
1,3.96,B1
2,3.89,B2

# Target: DLG2_2, Q15700
# Assay: holdup assay
# Set-up: key: below the threshold = too weak to quantify, mostly under pKd 3.1 to 4
# Conditions: plain residues with an end cap or a label only (N-terminal biotin on a linker: ado-ado)
# DLG2_2, Q15700, sequence (Q15700 189-283): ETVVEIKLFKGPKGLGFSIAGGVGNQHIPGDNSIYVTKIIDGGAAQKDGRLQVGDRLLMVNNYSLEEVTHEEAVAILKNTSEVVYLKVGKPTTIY
row,pKd,Binder
1,below the threshold,B1
2,below the threshold,B2

# Target: AHNAK1, Q09666
# Assay: holdup assay
# Set-up: key: below the threshold = too weak to quantify, mostly under pKd 3.1 to 4
# Conditions: plain residues with an end cap or a label only (N-terminal biotin on a linker: ado-ado)
# AHNAK1, Q09666, sequence (Q09666 4-100): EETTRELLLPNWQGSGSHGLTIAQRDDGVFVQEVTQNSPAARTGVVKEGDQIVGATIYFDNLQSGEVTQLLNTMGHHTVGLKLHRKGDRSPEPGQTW
row,pKd,Binder
1,below the threshold,B1
2,below the threshold,B2

# Target: T8, MPDZ_5, O75970
# Assay: holdup assay
# Set-up: key: below the threshold = too weak to quantify, mostly under pKd 3.1 to 4
# Conditions: plain residues with an end cap or a label only (N-terminal biotin on a linker: ado-ado)
row,pKd,Binder
1,below the threshold,B1
2,below the threshold,B2

# Target: Inadl_8, Q8NI35
# Assay: holdup assay
# Set-up: key: below the threshold = too weak to quantify, mostly under pKd 3.1 to 4
# Conditions: plain residues with an end cap or a label only (N-terminal biotin on a linker: ado-ado)
# Inadl_8, Q8NI35, sequence (Q8NI35 1425-1530): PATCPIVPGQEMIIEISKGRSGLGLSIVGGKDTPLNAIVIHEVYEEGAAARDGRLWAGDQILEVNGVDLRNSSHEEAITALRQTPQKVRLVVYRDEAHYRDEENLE
row,pKd,Binder
1,below the threshold,B1
2,below the threshold,B2

# Target: T9, LNX2_3, Q8N448
# Assay: holdup assay
# Set-up: key: below the threshold = too weak to quantify, mostly under pKd 3.1 to 4
# Conditions: plain residues with an end cap or a label only (N-terminal biotin on a linker: ado-ado)
row,pKd,Binder
1,below the threshold,B1
2,3.54,B2

# Target: MAGI2_2, Q86UL8
# Assay: holdup assay
# Set-up: key: below the threshold = too weak to quantify, mostly under pKd 3.1 to 4
# Conditions: plain residues with an end cap or a label only (N-terminal biotin on a linker: ado-ado)
# MAGI2_2, Q86UL8, sequence (Q86UL8 410-522): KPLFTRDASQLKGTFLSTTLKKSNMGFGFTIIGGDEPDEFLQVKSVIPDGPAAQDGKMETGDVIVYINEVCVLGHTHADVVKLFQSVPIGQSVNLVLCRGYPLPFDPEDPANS
row,pKd,Binder
1,3.71,B1
2,3.55,B2

# Target: T10, FRMPD1, Q5SYB0
# Assay: holdup assay
# Set-up: key: below the threshold = too weak to quantify, mostly under pKd 3.1 to 4
# Conditions: plain residues with an end cap or a label only (N-terminal biotin on a linker: ado-ado)
row,pKd,Binder
1,below the threshold,B1
2,below the threshold,B2

# Target: T11, MPDZ_12, O75970
# Assay: holdup assay
# Set-up: key: below the threshold = too weak to quantify, mostly under pKd 3.1 to 4
# Conditions: plain residues with an end cap or a label only (N-terminal biotin on a linker: ado-ado)
row,pKd,Binder
1,below the threshold,B1
2,below the threshold,B2

# Target: GRIP2_3, Q9C0E4
# Assay: holdup assay
# Set-up: key: below the threshold = too weak to quantify, mostly under pKd 3.1 to 4
# Conditions: plain residues with an end cap or a label only (N-terminal biotin on a linker: ado-ado)
# GRIP2_3, Q9C0E4, sequence (Q9C0E4 238-339): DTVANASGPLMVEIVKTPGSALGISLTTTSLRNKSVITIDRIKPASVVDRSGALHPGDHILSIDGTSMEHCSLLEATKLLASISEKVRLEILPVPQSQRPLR
row,pKd,Binder
1,below the threshold,B1
2,below the threshold,B2

# Target: T12, DLG3_3, Q92796
# Assay: holdup assay
# Set-up: key: below the threshold = too weak to quantify, mostly under pKd 3.1 to 4
# Conditions: plain residues with an end cap or a label only (N-terminal biotin on a linker: ado-ado)
row,pKd,Binder
1,below the threshold,B1
2,below the threshold,B2
